# ± gives the uncertainty stated by the source.
# B1: Zinc finger MYM-type protein 3, residues 589 to 668; numbered along this chain, Q14202 (parent)
# chain: LSCHYCHSLFSGKPEVLDWQDQVFQFCCRDCCEDFKRLRGVVSQCEHCRQEKLLHEKLRFSGVEKSFCSEGCVLLYKQDF
# Variants of: B1
# Assay: abundance fitness (aPCA) (normalised: wild type 0, dead -1); higher = more abundant; growth selection in yeast, the domain comes from the species named
# Settings: Homo sapiens
row,Variant,abundance fitness
1,LSCHYCHSLFSGKPEVLDWQDQVFQFCCRDCCEDFKDLRGVVSQCEHCRQEKLLHEKLRFSGVEKSFCSEGCVLLYKQDF,-0.238 ± 0.19
2,LSCHYCHSLFSGKPEVLDWQDQVFQFCCRDCCEDFKKLRGVVSQCEHCRQEKLLHEKLRFSGVEKSFCSEGCVLLYKQDF,-0.343 ± 0.21
3,LSCHYCHSLFSGKPEVLDWQDQVFQFCCRDCCEDFKVLRGVVSQCEHCRQEKLLHEKLRFSGVEKSFCSEGCVLLYKQDF,0.097 ± 0.1
4,LSCHYCHSLFSGKPEVLDWQDQVFQFCCRDCCEDFKELRGVVSQCEHCRQEKLLHEKLRFSGVEKSFCSEGCVLLYKQDF,-0.084 ± 0.18
5,LSCHYCHSLFSGKPEVLDWQDQVFQFCCRDCCEDFKGLRGVVSQCEHCRQEKLLHEKLRFSGVEKSFCSEGCVLLYKQDF,-0.045 ± 0.061
6,LSCHYCHSLFSGKPEVLDWQDQVFQFCCRDCCEDFKQLRGVVSQCEHCRQEKLLHEKLRFSGVEKSFCSEGCVLLYKQDF,0.254 ± 0.12
7,LSCHYCHSLFSGKPEVLDWQDQVFQFCCRDCCEDFKALRGVVSQCEHCRQEKLLHEKLRFSGVEKSFCSEGCVLLYKQDF,0.057 ± 0.16
8,LSCHYCHSLFSGKPEVLDWQDQVFQFCCRDCCEDFKSLRGVVSQCEHCRQEKLLHEKLRFSGVEKSFCSEGCVLLYKQDF,0.123 ± 0.091
9,LSCHYCHSLFSGKPEVLDWQDQVFQFCCRDCCEDFKCLRGVVSQCEHCRQEKLLHEKLRFSGVEKSFCSEGCVLLYKQDF,-0.374 ± 0.21
10,LSCHYCHSLFSGKPEVLDWQDQVFQFCCRDCCEDFKMLRGVVSQCEHCRQEKLLHEKLRFSGVEKSFCSEGCVLLYKQDF,-0.086 ± 0.22
11,LSCHYCHSLFSGKPEVLDWQDQVFQFCCRDCCEDFKLLRGVVSQCEHCRQEKLLHEKLRFSGVEKSFCSEGCVLLYKQDF,0.095 ± 0.06
12,LSCHYCHSLFSGKPEVLDWQDQVFQFCCRDCCEDFKPLRGVVSQCEHCRQEKLLHEKLRFSGVEKSFCSEGCVLLYKQDF,-0.097 ± 0.13
13,LSCHYCHSLFSGKPEVLDWQDQVFQFCCRDCCEDFKWLRGVVSQCEHCRQEKLLHEKLRFSGVEKSFCSEGCVLLYKQDF,-0.065 ± 0.27
14,LSCHYCHSLFSGKPEVLDWQDQVFQFCCRDCCEDFKRLRGVMSQCEHCRQEKLLHEKLRFSGVEKSFCSEGCVLLYKQDF,0.422 ± 0.12
15,LSCHYCHSLFSGKPEVLDWQDQVFQFCCRDCCEDFKRLRGVGSQCEHCRQEKLLHEKLRFSGVEKSFCSEGCVLLYKQDF,-0.265 ± 0.095
16,LSCHYCHSLFSGKPEVLDWQDQVFQFCCRDCCEDFKRLRGVESQCEHCRQEKLLHEKLRFSGVEKSFCSEGCVLLYKQDF,-0.041 ± 0.12
17,LSCHYCHSLFSGKPEVLDWQDQVFQFCCRDCCEDFKRLKGVVSQCEHCRQEKLLHEKLRFSGVEKSFCSEGCVLLYKQDF,-0.146 ± 0.33
18,LSCHYCHSLFSGKPEVLDWQDQVFQFCCRDCCEDFKRLAGVVSQCEHCRQEKLLHEKLRFSGVEKSFCSEGCVLLYKQDF,-0.417 ± 0.18
19,LSCHYCHSLFSGKPEVLDWQDQVFQFCCRDCCEDFKRLCGVVSQCEHCRQEKLLHEKLRFSGVEKSFCSEGCVLLYKQDF,0.272 ± 0.21
20,LSCHYCHSLFSGKPEVLDWQDQVFQFCCRDCCEDFKRLEGVVSQCEHCRQEKLLHEKLRFSGVEKSFCSEGCVLLYKQDF,-0.159 ± 0.39
21,LSCHYCHSLFSGKPEVLDWQDQVFQFCCRDCCEDFKRLLGVVSQCEHCRQEKLLHEKLRFSGVEKSFCSEGCVLLYKQDF,-0.282 ± 0.32
22,LSCHYCHSLFSGKPEVLDWQDQVFQFCCRDCCEDFKRLGGVVSQCEHCRQEKLLHEKLRFSGVEKSFCSEGCVLLYKQDF,0.424 ± 0.11
23,LSCHYCHSLFSGKPEVLDWQDQVFQFCCRDCCEDFKRLMGVVSQCEHCRQEKLLHEKLRFSGVEKSFCSEGCVLLYKQDF,0.032 ± 0.39

row,Variant,abundance fitness
1,LSCHYCHSLFSGKPEVLDWQDQVFQFCCRDCCEDFKRLQGVVSQCEHCRQEKLLHEKLRFSGVEKSFCSEGCVLLYKQDF,0.288 ± 0.14
2,LSCHYCHSLFSGKPEVLDWQDQVFQFCCRDCCEDFKRCRGVVSQCEHCRQEKLLHEKLRFSGVEKSFCSEGCVLLYKQDF,0.11 ± 0.16
3,LSCHYCHSLFSGKPEVLDWQDQVFQFCCRDCCEDFKRTRGVVSQCEHCRQEKLLHEKLRFSGVEKSFCSEGCVLLYKQDF,0.264 ± 0.075
4,LSCHYCHSLFSGKPEVLDWQDQVFQFCCRDCCEDFKRIRGVVSQCEHCRQEKLLHEKLRFSGVEKSFCSEGCVLLYKQDF,0.063 ± 0.16
5,LSCHYCHSLFSGKPEVLDWQDQVFQFCCRDCCEDFKRERGVVSQCEHCRQEKLLHEKLRFSGVEKSFCSEGCVLLYKQDF,0.302 ± 0.14
6,LSCHYCHSLFSGKPEVLDWQDQVFQFCCRDCCEDFKRSRGVVSQCEHCRQEKLLHEKLRFSGVEKSFCSEGCVLLYKQDF,0.05 ± 0.057
7,LSCHYCHSLFSGKPEVLDWQDQVFQFCCRDCCEDFKRVRGVVSQCEHCRQEKLLHEKLRFSGVEKSFCSEGCVLLYKQDF,0.013 ± 0.059
8,LSCHYCHSLFSGKPEVLDWQDQVFQFCCRDCCEDFKRWRGVVSQCEHCRQEKLLHEKLRFSGVEKSFCSEGCVLLYKQDF,0.243 ± 0.073
9,LSCHYCHSLFSGKPEVLDWQDQVFQFCCRDCCEDFKRYRGVVSQCEHCRQEKLLHEKLRFSGVEKSFCSEGCVLLYKQDF,-0.041 ± 0.15
10,LSCHYCHSLFSGKPEVLDWQDQVFQFCCRDCCEDFKRPRGVVSQCEHCRQEKLLHEKLRFSGVEKSFCSEGCVLLYKQDF,0.062 ± 0.078
11,LSCHYCHSLFSGKPEVLDWQDQVFQFCCRDCCEDFKRRRGVVSQCEHCRQEKLLHEKLRFSGVEKSFCSEGCVLLYKQDF,0.087 ± 0.053
12,LSCHYCHSLFSGKPEVLDWQDQVFQFCCRDCCEDFKRLRGAVSQCEHCRQEKLLHEKLRFSGVEKSFCSEGCVLLYKQDF,-0.208 ± 0.41
13,LSCHYCHSLFSGKPEVLDWQDQVFQFCCRDCCEDFKRLRGRVSQCEHCRQEKLLHEKLRFSGVEKSFCSEGCVLLYKQDF,0.003 ± 0.14
14,LSCHYCHSLFSGKPEVLDWQDQVFQFCCRDCCEDFKRLRGTVSQCEHCRQEKLLHEKLRFSGVEKSFCSEGCVLLYKQDF,-0.243 ± 0.41
15,LSCHYCHSLFSGKPEVLDWQDQVFQFCCRDCCEDFKRLRGIVSQCEHCRQEKLLHEKLRFSGVEKSFCSEGCVLLYKQDF,0.195 ± 0.24
16,LSCHYCHSLFSGKPEVLDWQDQVFQFCCRDCCEDFKRLRGNVSQCEHCRQEKLLHEKLRFSGVEKSFCSEGCVLLYKQDF,0.317 ± 0.31
17,LSCHYCHSLFSGKPEVLDWQDQVFQFCCRDCCEDFKRLRGKVSQCEHCRQEKLLHEKLRFSGVEKSFCSEGCVLLYKQDF,0.398 ± 0.39
18,LSCHYCHSLFSGKPEVLDWQDQVFQFCCRDCCEDFKRLRGEVSQCEHCRQEKLLHEKLRFSGVEKSFCSEGCVLLYKQDF,0.079 ± 0.13
19,LSCHYCHSLFSGKPEVLDWQDQVFQFCCRDCCEDFKRLRGLVSQCEHCRQEKLLHEKLRFSGVEKSFCSEGCVLLYKQDF,-0.181 ± 0.32
20,LSCHYCHSLFSGKPEVLDWQDQVFQFCCRDCCEDFKRLRGGVSQCEHCRQEKLLHEKLRFSGVEKSFCSEGCVLLYKQDF,0.056 ± 0.098
21,LSCHYCHSLFSGKPEVLDWQDQVFQFCCRDCCEDFFRLRGVVSQCEHCRQEKLLHEKLRFSGVEKSFCSEGCVLLYKQDF,-0.088 ± 0.074
22,LSCHYCHSLFSGKPEVLDWQDQVFQFCCRDCCEDFWRLRGVVSQCEHCRQEKLLHEKLRFSGVEKSFCSEGCVLLYKQDF,-0.181 ± 0.043
23,LSCHYCHSLFSGKPEVLDWQDQVFQFCCRDCCEDFGRLRGVVSQCEHCRQEKLLHEKLRFSGVEKSFCSEGCVLLYKQDF,-0.019 ± 0.039

row,Variant,abundance fitness
1,LSCHYCHSLFSGKPEVLDWQDQVFQFCCRDCCEDFNRLRGVVSQCEHCRQEKLLHEKLRFSGVEKSFCSEGCVLLYKQDF,-0.251 ± 0.073
2,LSCHYCHSLFSGKPEVLDWQDQVFQFCCRDCCEDFCRLRGVVSQCEHCRQEKLLHEKLRFSGVEKSFCSEGCVLLYKQDF,-0.294 ± 0.06
3,LSCHYCHSLFSGKPEVLDWQDQVFQFCCRDCCEDFRRLRGVVSQCEHCRQEKLLHEKLRFSGVEKSFCSEGCVLLYKQDF,-0.077 ± 0.038
4,LSCHYCHSLFSGKPEVLDWQDQVFQFCCRDCCEDFMRLRGVVSQCEHCRQEKLLHEKLRFSGVEKSFCSEGCVLLYKQDF,0.229 ± 0.044
5,LSCHYCHSLFSGKPEVLDWQDQVFQFCCRDCCEDFIRLRGVVSQCEHCRQEKLLHEKLRFSGVEKSFCSEGCVLLYKQDF,-0.313 ± 0.1
6,LSCHYCHSLFSGKPEVLDWQDQVFQFCCRDCCEDFTRLRGVVSQCEHCRQEKLLHEKLRFSGVEKSFCSEGCVLLYKQDF,-0.011 ± 0.053
7,LSCHYCHSLFSGKPEVLDWQDQVFQFCCRDCCEDFHRLRGVVSQCEHCRQEKLLHEKLRFSGVEKSFCSEGCVLLYKQDF,-0.089 ± 0.057
8,LSCHYCHSLFSGKPEVLDWQDQVFQFCCRDCCEDFSRLRGVVSQCEHCRQEKLLHEKLRFSGVEKSFCSEGCVLLYKQDF,-0.048 ± 0.042
9,LSCHYCHSLFSGKPEVLDWQDQVFQFCCRDCCEDFARLRGVVSQCEHCRQEKLLHEKLRFSGVEKSFCSEGCVLLYKQDF,-0.077 ± 0.042
10,LSCHYCHSLFSGKPEVLDWQDQVFQFCCRDCCEDFLRLRGVVSQCEHCRQEKLLHEKLRFSGVEKSFCSEGCVLLYKQDF,-0.101 ± 0.041
11,LSCHYCHSLFSGKPEVLDWQDQVFQFCCRDCCEDFERLRGVVSQCEHCRQEKLLHEKLRFSGVEKSFCSEGCVLLYKQDF,-0.01 ± 0.044
12,LSCHYCHSLFSGKPEVLDWQDQVFQFCCRDCCEDFPRLRGVVSQCEHCRQEKLLHEKLRFSGVEKSFCSEGCVLLYKQDF,-0.615 ± 0.093
13,LSCHYCHSLFSGKPEVLDWQDQVFQFCCRDCCEDFQRLRGVVSQCEHCRQEKLLHEKLRFSGVEKSFCSEGCVLLYKQDF,0.034 ± 0.048
14,LSCHYCHSLFSGKPEVLDWQDQVFQFCCRDCCEDFYRLRGVVSQCEHCRQEKLLHEKLRFSGVEKSFCSEGCVLLYKQDF,-0.561 ± 0.14
15,LSCHYCHSLFSGKPEVLDWQDQVFQFCCRDCCEDNKRLRGVVSQCEHCRQEKLLHEKLRFSGVEKSFCSEGCVLLYKQDF,-0.924 ± 0.39
16,LSCHYCHSLFSGKPEVLDWQDQVFQFCCRDCCEDYKRLRGVVSQCEHCRQEKLLHEKLRFSGVEKSFCSEGCVLLYKQDF,-0.177 ± 0.1
17,LSCHYCHSLFSGKPEVLDWQDQVFQFCCRDCCEDPKRLRGVVSQCEHCRQEKLLHEKLRFSGVEKSFCSEGCVLLYKQDF,-0.842 ± 0.077
18,LSCHYCHSLFSGKPEVLDWQDQVFQFCCRDCCEDQKRLRGVVSQCEHCRQEKLLHEKLRFSGVEKSFCSEGCVLLYKQDF,-0.421 ± 0.071
19,LSCHYCHSLFSGKPEVLDWQDQVFQFCCRDCCEDRKRLRGVVSQCEHCRQEKLLHEKLRFSGVEKSFCSEGCVLLYKQDF,-0.726 ± 0.052
20,LSCHYCHSLFSGKPEVLDWQDQVFQFCCRDCCEDTKRLRGVVSQCEHCRQEKLLHEKLRFSGVEKSFCSEGCVLLYKQDF,-0.607 ± 0.077
21,LSCHYCHSLFSGKPEVLDWQDQVFQFCCRDCCEDSKRLRGVVSQCEHCRQEKLLHEKLRFSGVEKSFCSEGCVLLYKQDF,-0.411 ± 0.055
22,LSCHYCHSLFSGKPEVLDWQDQVFQFCCRDCCEDWKRLRGVVSQCEHCRQEKLLHEKLRFSGVEKSFCSEGCVLLYKQDF,-0.118 ± 0.045
23,LSCHYCHSLFSGKPEVLDWQDQVFQFCCRDCCEDVKRLRGVVSQCEHCRQEKLLHEKLRFSGVEKSFCSEGCVLLYKQDF,-0.587 ± 0.048
